Data from the nanobody polyreactivity screen of Harvey et al. (2022).

Assay: yeast display, Sf9 membrane polyspecificity reagent, FACS + sequencing; frameworks hold sequencing errors
In short: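 Using colony PCR, genes from sorted yeast display clones were amplified, then sequenced on MiSeq at 2 × 250 and filtered by CDR length. The clones had been stained with 10% biotinylated, detergent-solubilized Sf9 membrane reagent for 1 hour at 4 °C and sorted by FACS into low and high (top ~1%) gates on anti-HA and streptavidin fluorescence. Polyreactivity labels come from the gate of origin.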

Sequence	polyreactivity (PSR sort gate)
QVQLVESGGGLVQAGGSLRLSCAASGSIFDVYAMGWYRQAPGKERELVAAITGGGSTYYADSVKGRFTISRDNAKNSVYLQMNSLKPEDTAVYYCNADRRRRSGGFAGWHFQRNEYWGHGTQVTVSS	low polyreactivity
QVQLVESGGGLVQAGGSLRLSCAASGSIFDVYGMGWYRQAPGKEREFVADITSRGTRTYYADSVKGRFTISRDNAKNTVYLQMNSLKPEDTAVYYCNADRYTAVRAYDYWGQGTQVTVSS	low polyreactivity
QVQLVESGGGLVQAGGSLRLSCAASGSIFDWNAMGWYRQAPGKERELVAAISGTGGTKYADSVKGRFTISRDNAKNTVYLQMNSLKPEDTAVYYCAVGLVPLRDGWHFYYEFDSWGQGTQVTVSS	low polyreactivity
QVQLVESGGGLVQAGGSLRLSCAASGSIFDWYVMGWYRQARGKERELVAAITSTGSTYYADSVKGRFTISRDNAKNTVYLQMNSLKPEDTAVYYCAAQRYSTFTYDYWGQGTQVTVSS	low polyreactivity
QVQLVESGGGLVQAGGSLRLSCAASGSIFDYNAMGWYRQAPGKERELVAGITFIGGSTYYADSVKGRFTISRDNAKNTVYLQMNSLKPEDTAVYYCNADVAPGIFYGYESWGQGTQVSVSS	low polyreactivity
QVQLVESGGGLVQAGGSLRLSCAASGSIFDYNTMGWYRQAPGKERELVATISWSGDSTYYADSVKGRFTISRDNAKNTVYLQMNSLKPEDTAVYYCAKTAPPERYSAWRYSWGQGTQVTVSS	low polyreactivity
QVQLVESGGGLVQAGGSLRLSCAASGSIFDYNTMGWYRQAPGKVRELVAVISGTGGSTYYADSVKGRFTISRVNAKNTVYVQLNSMKPEDTAVYYCAAEGYYSNYHYWGQGTQVTVSS	low polyreactivity
QVQLVESGGGLVQAGGSLRLSCAASGSIFDYYAMGWYRQAPGKETELVAAITYGGGSTYYADSVKGRFTISRDNAKNTVYLQMNSLKPEDTAVYYCNALGENYQFNYWGQGTQVTVSS	low polyreactivity
QVQLVESGGGLVQAGGSLRLSCAASGSIFDYYTMGCYRQAAGKERELVATIRSGDSTNYADSLKGRFTISRDIEMNRVYLQMNSLKPEDTAVYYCAAVDGAYPTLYDYWGQGTQVTVSS	low polyreactivity
QVQLVESGGGLVQAGGSLRLSCAASGSIFDYYVMGWYRQAPGKERELVAAISWSGASTYYADSVKGRFTISRDNAKNTVYLHMNSLKPEDTAVYYCAADYGVNTLIDYDYWGQGTQVTVSS	low polyreactivity
QVQLVESGGGLVQAGGSLRLSCAASGSIFEDNVMGWYRQAPGKEREFVADITAIGGSTYYADSVKGRFTISRDNAKNTVYLQMNSLKPEDTAVDYCAAGFYVDYQLYEYWGQGTQVTVSS	high polyreactivity
QVQLVESGGGLVQAGGSLRLSCAASGSIFEEYAMGWYRHAPGKERELVARIDESGGSTYYADSVKGRFTISRDNAKNTVYLQMNSLKPEDTAVYYCAAERYSDSWGYYSVDEGSWEMDYWGQGTQVTVSS	low polyreactivity
QVQLVESGGGLVQAGGSLRLSCAASGSIFEFYTMGWYRQAPGKERELVAAITASGGSTYYADSVKGRFTISRDNAKNTVYLQMNSLKPEDTAVYYCAARFRKQSKTPSPRRYDSWGQGTQVTVSS	high polyreactivity
QVQLVESGGGLVQAGGSLRLSCAASGSIFEGNARGWYRQAPGKERELVAAISTTGGITYYADAVKGRFTISRANAKNTVDLQKNSLKPEDTAVDYCAADPSQPRNDSSNYDYWGQGTQVTVSS	low polyreactivity
QVQLVESGGGLVQAGGSLRLSCAASGSIFEINAMGWYRQAPGKERELVAAITQSGGITYYADSVKGRFTISRDNAKNTVYLQINSLKPEDTAVYYCNTPLLKRTTRGRERNYWGQGTQVTVSS	low polyreactivity
QVQLVESGGGLVQAGGSLRLSCAASGSIFEIYAMGWYRQAPGKERELVASITWSGGSTYYADSVKGRFTISRDNAKNTVYLQMNSRKPEDTAVYYCATDKLYGRTVRMDYWGQGTQVTVSS	low polyreactivity
QVQLVESGGGLVQAGGSLRLSCAASGSIFEPNAMGWYRQAPGKERELVAAISWNDGDTYYADSVKGRFTISRDNAKNTVYLQMNSLKPVDTAVYYCAAETGYAFDYWGQGTQVTVSS	low polyreactivity
QVQLVESGGGLVQAGGSLRLSCAASGSIFEPYAMGWYRQAPGKERELVAAISSDGTTNYADSVKGRFTISRDNAKNTVYLQMNSLKPEDTAVYYCAADVFNWGYYYWGQGTQVTVSS	low polyreactivity
QVQLVESGGGLVQAGGSLRLSCAASGSIFEPYAMGWYRQAPGKERELVAGIRKSGATTYYADSVKGRFTISRDNAKNTVYLQMNSLKPEDSAVYYCNAVVKSSSRGSISHPGYDYWGQGTQVTVSS	high polyreactivity
QVQLVESGGGLVQAGGSLRLSCAASGSIFEPYTMGWYRQAPGKERELVAAITGSGGSTFYADSVKGRFTISRDNAKNTVYLQMNSLKPEDTAVYYCNAYAYPYTDVDYWGQGTQVTVSS	low polyreactivity
QVQLVESGGGLVQAGGSLRLSCAASGSIFESYAMGCYRQAPGKERELVAAITKRGGSTYYADSVKGRFTISRDNSKNTFYLQMNSLKPEDTAVYYCNARSPGIGPIYDYWGQGTQVTVSS	low polyreactivity

Sequence	polyreactivity (PSR sort gate)
QVQLVESGGGLVQAGGSLRLSCAASGSIFESYAMGWYRQAPGKERELVAAITLSGTSTYYADSVKGRFTISRDNAKNTVYLQMNSLKPEDTAVYYCNAKPIPVRGSYDYWGQGTQVTVSS	low polyreactivity
QVQLVESGGGLVQAGGSLRLSCAASGSIFESYAMGWYRQAPGKEWELVASISGGGSTYYADSVKGRFTISRDNAKNTVYLQMNSLKPEDTAVYYCATVYVRYRQSRLIRYGYWVQGTQVTVSS	high polyreactivity
QVQLVESGGGLVQAGGSLRLSCAASGSIFETNAMGWYRQAPGKERELVAAITGSGGSTYYADSVKGRFTISRDNAKNTVYLQMNSLIPVDTEVYYCAADSSGQSRFGYWGQGTQVTVSS	low polyreactivity
QVQLVESGGGLVQAGGSLRLSCAASGSIFETYAMGWYRQAPGKEWELVAAISRTSGRTYYADSVKGRFTISRDNAKNTVYLQMNSLKPDDTAVYYCAAVVRNPGTYDYWGHGTQVTVSS	high polyreactivity
QVQLVESGGGLVQAGGSLRLSCAASGSIFEVYAMGWYRQAPVKERELVAAIDYSDGTTYYADSVKGRFTISRDNAKNTVYFQMNSLKPEDTAVYYCAADFPGQHYDYWGQGTQVTVSS	low polyreactivity
QVQLVESGGGLVQAGGSLRLSCAASGSIFEWYAMGWYRQAPGKERELVAAISSSGTSTYYADSVKGRFTISRDNAKNTVYLQMNSLKPEDTAVYYCNTDLSRLSQHDYWGQGTQVTVSS	low polyreactivity
QVQLVESGGGLVQAGGSLRLSCAASGSIFEWYAMGWYRQAPGKERELVADISSVGSTYYADSVKGRFTISRDNAKNTVYLQMNSLKPEDTAVYYCNTSYIIWYDSWGQGTQVTVSS	low polyreactivity
QVQLVESGGGLVQAGGSLRLSCAASGSIFEYNGMGWSRQAPGKERELVAAITTTGTTDYADSVKGRFTISRDNAKNTVYLQMNSLKPEDTAVYYCAADYTYYYKGEYDYWGQGTQVTVSS	low polyreactivity
QVQLVESGGGLVQAGGSLRLSCAASGSIFEYNGMGWYRQAPGKERELVAAITTTGTTDYADSVKGRFTISRDNAKNTVYLQMNSLKPEDTAVYYCAADYTYYYKGEYDYWGQGTQVTVSS	low polyreactivity
QVQLVESGGGLVQAGGSLRLSCAASGSIFEYYPMGWYRQAPGKERELVAAISWSGGSTYYADSVKGRFSISRDNAKNTVYFQMNSLKPEDTAVYYCAARGYWGQGTQVTVSS	low polyreactivity
QVQLVESGGGLVQAGGSLRLSCAASGSIFFAYAMGWYRQAPGKERELVAAIRSGVRTNYADSVKGRFTISRDNAKNTVYIQMNSLKPEDTAVYYCNTDLSKFGHRVSLSGYDYWGQGTQVNVSS	low polyreactivity
QVQLVESGGGLVQAGGSLRLSCAASGSIFFAYDMGWYRQAPGKERELVAAINFDGTSTYYADSVKGRFTISRDNAKNTVYLQMNTLKPEDTAVYYCNKRVSPTYKGQYVYWGQGTQVTVSS	low polyreactivity
QVQLVESGGGLVQAGGSLRLSCAASGSIFFAYVMGWYRQAPGKERELDAVITYSGGSTYYADSVKGRFTISRDNAKNTVYLQMNSLKPEDTAVYDCAADETSALDDYWGQGTQVTVSS	low polyreactivity
QVQLVESGGGLVQAGGSLRLSCAASGSIFFDYGMGWYRQAPGKERELVATITRGTGSTYYADSVKGRFTISRDNAKNTVYLQMNSLKPEDTAVYYCAAGWHYVYRTPGFGYWGQGTQVTVSS	high polyreactivity
QVQLVESGGGLVQAGGSLRLSCAASGSIFFEYAMGWYRQAPGKERELVAAISRRGGSTYYADSVKGRFTISRDNAKNTVYLQMNSLKPEDTAVYYCNKVNRASRGDYDYWGQGTQVTVSS	high polyreactivity
QVQLVESGGGLVQAGGSLRLSCAASGSIFFEYAMGWYRQAPGKERELVASINRGGGSTYYADSVKGRFTISRDNAKNTVYLQMNSLIPEDTAVYYCAAQCKYRQSYLDYYWGQGTQVTVSS	low polyreactivity
QVQLVESGGGLVQAGGSLRLSCAASGSIFFGYGMGWYRQAPGKERELVATITTSGGTYYADSVKGRFTISRDNAKNTVYLQMNSLKPEDTAVYYCNKEDYGLYPYYVSVGYDYWGQGTQVTVSS	low polyreactivity
QVQLVESGGGLVQAGGSLRLSCAASGSIFFIYAMGWYRQAPGKERELVAAINDGGGSTYYADSVKGRFTISRDNAKNTVYLLMNSLKPEDTAVYYCAAEWSWGPYRYDYWGQGTQVTVSS	high polyreactivity
QVQLVESGGGLVQAGGSLRLSCAASGSIFFIYAMGWYRQAPGKERELVAAISWSDDSTYYADSVKGRFTISRDNAKNTVYLQMNSLKPEDTAVYYCAARYYIGYGHRTYGYDYWGQGTQVTVSS	high polyreactivity
QVQLVESGGGLVQAGGSLRLSCAASGSIFFIYAMGWYRQAPGKERELVATITSGGSTYYADSVNGRFTISRDNAKNTVYLQMNSLKPEDTAVYYCAVDEYFAFDYWGQGTQVTVSS	low polyreactivity
